Experimental data reported in paper PMC10516938, “Conformational dynamics of cohesin/Scc2 loading complex are regulated by Smc3 acetylation and ATP binding” (Nature Communications, 2023).

T1: Smc3 K1004C E1155Q (S. cerevisiae, UniProt P47037 1-1230, K1004C | E1155Q)
T1 construct: Smc3, S. cerevisiae; also called EQ mutant version of Smc3^K1004C; source: S. cerevisiae W303, ectopically expressed, late G1 arrested cells, whole-cell extract
T1 sequence (looked up): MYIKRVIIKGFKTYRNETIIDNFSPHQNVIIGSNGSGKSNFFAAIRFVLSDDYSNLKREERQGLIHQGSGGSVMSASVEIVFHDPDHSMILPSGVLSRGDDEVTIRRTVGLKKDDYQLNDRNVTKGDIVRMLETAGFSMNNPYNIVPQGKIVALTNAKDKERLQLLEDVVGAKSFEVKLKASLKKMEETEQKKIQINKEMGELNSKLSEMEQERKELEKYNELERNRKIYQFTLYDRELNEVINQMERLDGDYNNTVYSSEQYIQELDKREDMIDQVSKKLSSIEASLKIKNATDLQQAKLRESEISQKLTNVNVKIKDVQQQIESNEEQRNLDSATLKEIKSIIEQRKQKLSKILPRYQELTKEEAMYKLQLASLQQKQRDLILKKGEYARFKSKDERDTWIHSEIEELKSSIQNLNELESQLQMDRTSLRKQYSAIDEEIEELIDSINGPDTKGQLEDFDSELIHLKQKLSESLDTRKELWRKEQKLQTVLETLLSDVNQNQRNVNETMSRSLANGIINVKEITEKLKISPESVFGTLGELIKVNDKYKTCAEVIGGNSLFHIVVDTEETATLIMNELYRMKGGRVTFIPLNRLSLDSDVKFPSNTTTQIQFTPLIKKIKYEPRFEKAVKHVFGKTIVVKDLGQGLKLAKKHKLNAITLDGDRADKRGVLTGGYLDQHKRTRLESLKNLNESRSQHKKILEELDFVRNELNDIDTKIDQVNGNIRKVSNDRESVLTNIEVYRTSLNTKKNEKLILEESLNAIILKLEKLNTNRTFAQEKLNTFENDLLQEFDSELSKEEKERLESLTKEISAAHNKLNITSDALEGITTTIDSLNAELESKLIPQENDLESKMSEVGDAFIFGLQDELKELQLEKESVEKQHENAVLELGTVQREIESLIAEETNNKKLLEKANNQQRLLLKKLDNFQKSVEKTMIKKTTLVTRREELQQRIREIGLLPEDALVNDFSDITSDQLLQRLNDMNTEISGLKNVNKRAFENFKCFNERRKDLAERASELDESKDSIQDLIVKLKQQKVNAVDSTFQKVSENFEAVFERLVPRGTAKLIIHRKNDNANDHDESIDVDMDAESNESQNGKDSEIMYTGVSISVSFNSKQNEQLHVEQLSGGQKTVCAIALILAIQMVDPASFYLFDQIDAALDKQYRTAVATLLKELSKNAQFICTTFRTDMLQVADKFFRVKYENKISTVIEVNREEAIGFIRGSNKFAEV

T2: Smc3^QQ W483R R1008I Q67C (S. cerevisiae, UniProt P47037 1-1230, Q67C | K112Q | K113Q | W483R | R1008I)
T2 construct: Smc3, S. cerevisiae; also called smc3-QQ Q67C with R1008I and W483R; source: S. cerevisiae W303, late G1 arrested cells, whole-cell extract
T2 sequence (looked up): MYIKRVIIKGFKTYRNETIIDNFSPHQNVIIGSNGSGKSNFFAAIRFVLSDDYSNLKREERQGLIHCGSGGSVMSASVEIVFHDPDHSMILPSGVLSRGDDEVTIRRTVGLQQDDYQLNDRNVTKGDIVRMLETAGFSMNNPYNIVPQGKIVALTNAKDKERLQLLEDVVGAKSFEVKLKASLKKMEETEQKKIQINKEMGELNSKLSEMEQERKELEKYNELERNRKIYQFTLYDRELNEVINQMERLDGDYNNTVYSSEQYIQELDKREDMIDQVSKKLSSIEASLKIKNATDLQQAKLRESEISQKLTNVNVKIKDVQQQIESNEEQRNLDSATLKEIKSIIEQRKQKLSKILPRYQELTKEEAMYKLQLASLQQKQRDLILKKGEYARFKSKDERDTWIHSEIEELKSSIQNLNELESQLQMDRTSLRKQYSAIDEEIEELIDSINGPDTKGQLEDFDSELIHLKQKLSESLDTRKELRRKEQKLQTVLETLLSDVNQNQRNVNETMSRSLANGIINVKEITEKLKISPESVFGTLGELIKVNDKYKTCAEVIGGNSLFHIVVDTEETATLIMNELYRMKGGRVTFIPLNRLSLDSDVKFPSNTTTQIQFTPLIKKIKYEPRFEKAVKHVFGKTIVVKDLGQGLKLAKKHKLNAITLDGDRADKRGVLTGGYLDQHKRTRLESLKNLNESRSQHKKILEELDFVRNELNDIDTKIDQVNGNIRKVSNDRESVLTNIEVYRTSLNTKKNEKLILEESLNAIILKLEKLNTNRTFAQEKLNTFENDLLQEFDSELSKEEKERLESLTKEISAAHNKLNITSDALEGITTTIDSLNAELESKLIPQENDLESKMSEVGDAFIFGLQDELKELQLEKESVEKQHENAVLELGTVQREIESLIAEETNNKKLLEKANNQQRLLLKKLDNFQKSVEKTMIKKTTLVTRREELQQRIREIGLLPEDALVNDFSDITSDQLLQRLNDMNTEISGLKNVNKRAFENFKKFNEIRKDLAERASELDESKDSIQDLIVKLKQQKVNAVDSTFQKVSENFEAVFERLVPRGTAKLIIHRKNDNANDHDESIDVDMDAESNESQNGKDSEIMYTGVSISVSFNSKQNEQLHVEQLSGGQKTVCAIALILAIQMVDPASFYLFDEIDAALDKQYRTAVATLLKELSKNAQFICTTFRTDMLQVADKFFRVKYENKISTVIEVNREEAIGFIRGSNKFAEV


Assays:
Smc3 K1004C E1155Q = target: T1, Smc3 K1004C E1155Q; assay: cross-linking; in vivo BMOE cross-link of cysteine pairs in yeast cells arrested in late G1 by non-degradable Sic1(9m); Scc1-PK immunoprecipitated, western blot, band intensities quantified; conditions: partners not purified
[1] = target: T2, Smc3^QQ W483R R1008I Q67C; assay: as above; conditions: partners not purified

Binder | fold change of the crosslink against wild-type Smc3 (K1004C) (Smc3 K1004C E1155Q) | crosslinking efficiency relative to wild type [1]
Scc2 D369C (natural protein, S. cerevisiae, UniProt Q04002 1-1493, looked up, Scc2, S. cerevisiae; source: S. cerevisiae W303, in vivo, whole-cell extract) MSYPGKDKNIPGRIIEALEDLPLSYLVPKDGLAALVNAPMRVSLPFDKTIFTSADDGRDVNINVLGTANSTTSSIKNEAEKERLVFKRPSNFTSSANSVDYVPTNFLEGLSPLAQSVLSTHKGLNDSINIEKKSEIVSRPEAKHKLESVTSNAGNLSFNDNSSNKKTKTSTGVTMTQANLAEQYLNDLKNILDIVGFDQNSAEIGNIEYWLQLPNKKFVLTTNCLTKLQMTIKNITDNPQLSNSIEITWLLRLLDVMVCNIKFSKSSLKMGLDDSMLRYIALLSTIVLFNIFLLGKNDSNLHRESYIMEPVNFLSDLIESLKILTIEYGSLKIEFDTFQEALELLPKYIRNGPFLDDNVTAKLVYIFSCLLMNNDIEATTNIQFQSFWDNVKRISSDILVSLFGSFDQQRGFIIEELLSHIEKLPTKRIQKKLRKVGNQNIYITDFTFTLMSMLENINCYSFCNQMKDIAPENIDLLKNEYKKQEEFLFNIVEHINDTILERFFKNPSALRYVIDNFVQDLLLLISSPQWPVTEKILSSLLKRLLSVYSPSMQVSANIETICLQLIGNIGSTIFDIKCSTRDHEDNNLIKMINYPETLPHFFKSFEECIAYNETIKCRRSATRFLWNLRLGTILILEEYTKDAKEQIITVDNELKKILEQIKDGGLGPELENREADFSTIKLDYFSILHAFELLNLYDPYLKLILSLLAKDKIKLRSTAIKCLSMLASKDKVILSNPMVKETIHRRLNDSSASVKDAILDLVSINSSYFEFYQQINNNYNDDSIMVRKHVLRINEKMYDETNDIVTKVYVIARILMKIEDEEDNIIDMARLILLNRWILKVHEVLDQPEKLKEISSSVLLVMSRVAIMNEKCSQLFDLFLNFYLLNKEAHSKEAYDKITHVLTILTDFLVQKIVELNSDDTNEKNSIVDKQNFLNLLAKFADSTVSFLTKDHITALYPYMVSDEKSDFHYYILQVFRCTFEKLANFKQKFLYDLETTLLSRLPKMNVREIDEAMPLIWSVATHRHDTARVAKACSSCLSHLHPYINKANNEEAAIVVDGKLQRLIYLSTGFARFCFPKPSNDKIAFLQEGETLYEHITKCLLVLSKDKITHVIRRVAVKNLTKLCGNHPKLFNSRHVLHLLDKEFQSDQLDIKLVILESLYDLFLLEERKSVRNTGVNSTLSSNSILKKKLLKTNRVEFANDGVCSALATRFLDNILQLCLLRDLKNSLVAIRLLKLILKFGYTNPSHSIPTVIALFASTSQYIRHVAYELLEDLFEKYETLVFSSLSRGVTKAIHYSIHTDEKYYYKHDHFLSLLEKLCGTGKKNGPKFFKVLKRIMQSYLDDITDLTSTNSSVQKSIFVLCTNISNITFVSQYDLVSLLKTIDLTTDRLKEVIMDEIGDNVSSLSVSEEKLSGIILIQLSLQDLGTYLLHLYGLRDDVLLLDIVEESELKNKQLPAKKPDISKFSAQLENIEQYSSNGKLLTYFRKHVKDT | ~10 fold | 
Scc2 T1175C (natural protein, S. cerevisiae, UniProt Q04002 1-1493, looked up, Scc2, S. cerevisiae; source: S. cerevisiae W303, in vivo, whole-cell extract) MSYPGKDKNIPGRIIEALEDLPLSYLVPKDGLAALVNAPMRVSLPFDKTIFTSADDGRDVNINVLGTANSTTSSIKNEAEKERLVFKRPSNFTSSANSVDYVPTNFLEGLSPLAQSVLSTHKGLNDSINIEKKSEIVSRPEAKHKLESVTSNAGNLSFNDNSSNKKTKTSTGVTMTQANLAEQYLNDLKNILDIVGFDQNSAEIGNIEYWLQLPNKKFVLTTNCLTKLQMTIKNITDNPQLSNSIEITWLLRLLDVMVCNIKFSKSSLKMGLDDSMLRYIALLSTIVLFNIFLLGKNDSNLHRESYIMEPVNFLSDLIESLKILTIEYGSLKIEFDTFQEALELLPKYIRNGPFLDDNVTAKLVYIFSDLLMNNDIEATTNIQFQSFWDNVKRISSDILVSLFGSFDQQRGFIIEELLSHIEKLPTKRIQKKLRKVGNQNIYITDFTFTLMSMLENINCYSFCNQMKDIAPENIDLLKNEYKKQEEFLFNIVEHINDTILERFFKNPSALRYVIDNFVQDLLLLISSPQWPVTEKILSSLLKRLLSVYSPSMQVSANIETICLQLIGNIGSTIFDIKCSTRDHEDNNLIKMINYPETLPHFFKSFEECIAYNETIKCRRSATRFLWNLRLGTILILEEYTKDAKEQIITVDNELKKILEQIKDGGLGPELENREADFSTIKLDYFSILHAFELLNLYDPYLKLILSLLAKDKIKLRSTAIKCLSMLASKDKVILSNPMVKETIHRRLNDSSASVKDAILDLVSINSSYFEFYQQINNNYNDDSIMVRKHVLRINEKMYDETNDIVTKVYVIARILMKIEDEEDNIIDMARLILLNRWILKVHEVLDQPEKLKEISSSVLLVMSRVAIMNEKCSQLFDLFLNFYLLNKEAHSKEAYDKITHVLTILTDFLVQKIVELNSDDTNEKNSIVDKQNFLNLLAKFADSTVSFLTKDHITALYPYMVSDEKSDFHYYILQVFRCTFEKLANFKQKFLYDLETTLLSRLPKMNVREIDEAMPLIWSVATHRHDTARVAKACSSCLSHLHPYINKANNEEAAIVVDGKLQRLIYLSTGFARFCFPKPSNDKIAFLQEGETLYEHITKCLLVLSKDKITHVIRRVAVKNLTKLCGNHPKLFNSRHVLHLLDKEFQSDQLDIKLVILESLYDLFLLEERKSVRNCGVNSTLSSNSILKKKLLKTNRVEFANDGVCSALATRFLDNILQLCLLRDLKNSLVAIRLLKLILKFGYTNPSHSIPTVIALFASTSQYIRHVAYELLEDLFEKYETLVFSSLSRGVTKAIHYSIHTDEKYYYKHDHFLSLLEKLCGTGKKNGPKFFKVLKRIMQSYLDDITDLTSTNSSVQKSIFVLCTNISNITFVSQYDLVSLLKTIDLTTDRLKEVIMDEIGDNVSSLSVSEEKLSGIILIQLSLQDLGTYLLHLYGLRDDVLLLDIVEESELKNKQLPAKKPDISKFSAQLENIEQYSSNGKLLTYFRKHVKDT |  | ~70%
